These results are taken from paper PMC10783487.

This data set has as its target T1, TbrCan2 E341A E341A (Thermoanaerobacter brockii subsp. finnii Ako-1 DSM 1457) (UniProt E8URK0).
T1 sequence: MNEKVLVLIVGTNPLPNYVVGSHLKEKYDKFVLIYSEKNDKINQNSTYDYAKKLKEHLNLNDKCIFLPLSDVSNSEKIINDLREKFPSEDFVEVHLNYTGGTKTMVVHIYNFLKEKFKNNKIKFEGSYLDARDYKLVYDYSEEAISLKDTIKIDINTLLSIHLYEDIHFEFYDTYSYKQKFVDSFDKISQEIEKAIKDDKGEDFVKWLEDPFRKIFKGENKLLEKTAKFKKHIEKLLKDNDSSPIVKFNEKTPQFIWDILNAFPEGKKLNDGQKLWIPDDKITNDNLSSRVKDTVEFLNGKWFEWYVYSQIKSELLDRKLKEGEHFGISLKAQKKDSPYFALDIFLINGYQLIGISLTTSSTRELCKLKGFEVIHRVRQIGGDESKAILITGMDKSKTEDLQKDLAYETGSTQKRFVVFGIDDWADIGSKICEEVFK
The experiment in a line: EMSA.

In general, Kd refers to a measure of binding affinity in units of concentration. Regarding ssRNA substrate, the Kd was 240 nM.
